Source: patent US20060141532A1

Target: HLA-A2 Ag on A375SM melanoma cells (human)
Assay: cell-based or functional assay

- inhibition of lysis of A375SM melanoma cells by I-100-CTL and I-102-CTL (51Cr release assay): > 50%
Substance: anti-HLA-A2 mAb MA2.1 (antibody)
